The target of experiment [1] is ribosome-nascent chain complex with the HA-tagged GatY(1-153) nascent chain (E. coli) (UniProt P0C8J6). The experiment in a line: fluorescence correlation spectroscopy (FCS); endpoint: ~2 ug truncated mRNA and 100 nM labeled TF in PUREfrex solution, 5-15 min at 37 C, then measured; two-component fit with the fast component fixed to free TF.
Experiment [2] has as its target ribosome-nascent chain complex with the HA-tagged GatY(1-284) nascent chain (E. coli) (UniProt P0C8J6). The description is as above.
The target in experiment [3] is vacant ribosome. As to the kind of experiment: fluorescence correlation spectroscopy (FCS); 100 nM Alexa488-labeled TF with increasing ribosome concentrations in HKM buffer (25 mM Hepes-KOH pH 7.4, 100 mM KCl, 5 mM MgCl2); ratio of ribosome-bound TF from a two-component fit, Kd from a quadratic fit.
In experiment [4] the target is ribosome-nascent chain complex with the HA-tagged GatY(1-153) nascent chain on the TMR-labeled Halo-S2 ribosome (E. coli | not stated) (UniProt P0C8J6). As to the kind of experiment: single-molecule total internal reflection fluorescence microscopy (TIRFM); RNCs held on a PEG/biotin-PEG slide through neutravidin and anti-HA biotin; 50 nM Alexa647-labeled TF, 50 nM TMR-labeled Halo-S2 ribosome; 10 frames/s for 150 s; residence times fitted.

Experiment [5] has as its target ribosome-nascent chain complex with the HA-tagged GatY(1-284) nascent chain on the TMR-labeled Halo-S2 ribosome (E. coli | not stated) (UniProt P0C8J6). The experiment is described as above.
The target in experiment [6] is Trigger factor (Escherichia coli) (UniProt P0A850). The note with it: cited from earlier work.

In general, Kd refers to the constant that tells how readily two partners part at equilibrium. Take “Alexa488-labeled trigger factor TF-R14C (from UniProt P0A850 1-432) (natural protein)”: the percent of TF in the slow component in experiment [1] and in experiment [2] was 90% in each case. In addition, the Kd in experiment [3] amounted to 2240 nM.

In the case of “Alexa647-labeled TF-R14C (from UniProt P0A850 1-432) (natural protein)”, the half-life of the residence time (fast component) in experiment [4] was 2.7 s. Also, the half-life of the residence time (slow fraction) in experiment [5] was determined as 9.8 s.

Regarding Trigger factor (from UniProt P0A850), the Kd in experiment [6] was 1500 nM.
